This note sets out measurements from US20140242080A1 (Hoffmann-La Roche, published 2014).

In test [1] the target is T1, human CEA expressed on tumor cells (LS-174T, A549-huCEA, MKN-45, MC38-huCEA, HPAFII, BxPC-3, ASPC-1) (human, UniProt P06731 35-685).
T1 sequence (looked up): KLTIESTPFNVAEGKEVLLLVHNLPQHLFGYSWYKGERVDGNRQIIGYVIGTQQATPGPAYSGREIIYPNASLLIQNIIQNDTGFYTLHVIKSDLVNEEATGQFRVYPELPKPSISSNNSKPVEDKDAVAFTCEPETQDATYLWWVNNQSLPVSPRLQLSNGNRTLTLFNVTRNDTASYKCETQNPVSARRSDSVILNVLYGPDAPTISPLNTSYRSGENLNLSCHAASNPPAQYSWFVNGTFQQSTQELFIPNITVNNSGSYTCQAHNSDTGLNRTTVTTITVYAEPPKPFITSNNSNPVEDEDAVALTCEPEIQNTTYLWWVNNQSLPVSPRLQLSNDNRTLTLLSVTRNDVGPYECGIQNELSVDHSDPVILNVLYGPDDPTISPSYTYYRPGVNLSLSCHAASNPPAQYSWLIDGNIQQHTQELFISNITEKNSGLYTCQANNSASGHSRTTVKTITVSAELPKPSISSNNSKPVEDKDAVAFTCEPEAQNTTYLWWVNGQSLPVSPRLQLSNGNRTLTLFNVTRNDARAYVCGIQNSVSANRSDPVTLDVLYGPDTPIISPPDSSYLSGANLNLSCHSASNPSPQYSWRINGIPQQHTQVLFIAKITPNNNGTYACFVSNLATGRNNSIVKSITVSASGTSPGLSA
Nature of the test: cell-based or functional assay.

Test [2] has as its target T2, human CD3 expressed on Jurkat cells (human, UniProt P07766 23-207).
T2 construct: CD3 complex on Jurkat T cells; also called CD3 on Jurkat cells; huCD3
The experiment in a line: flow cytometry on Jurkat cells. Background: In flow cytometry, cells or beads pass a laser one at a time.

The target of test [3] is T1, human CEA expressed on tumor cells …. The experiment in a line: flow cytometry on LS-174T cells. How it is done: Binding of the different bispecific constructs to CD3 on Jurkat cells (ATCC #TIB-152), and the respective tumor antigen on target cells, was determined by FACS. Briefly, cells were harvested, counted and checked for viability. 0.15-0.2 million cells per well (in PBS containing 0.1% BSA; 90 μl) were plated in a round-bottom 96-well plate and incubated with the indicated concentration of the bispecific constructs and corresponding IgG controls (10 μl) for 30 min at 4° C. […] After the incubation, cells were centrifuged (5 min, 350×g), washed with 150 μl PBS containing 0.1% BSA, resuspended and incubated for further 30 min at 4° C. with 12 μl/well of a FITC- or PE-conjugated secondary antibody. Bound constructs were detected using a FACSCantoII (Software FACS Diva). The “(scFv)₂” molecule was detected using a FITC-conjugated anti-His antibody (Lucerna, #RHIS-45F-Z). […] EC50 values were calculated using the GraphPad Prism software.
As a control, the equivalent maximum concentration of the corresponding IgGs and the background staining due to the labeled 2ndary antibody (goat anti-human FITC-conjugated AffiniPure F(ab′)2 Fragment, FcγFragment-specific, Jackson Immuno Research Lab #109-096-098) were assessed as well.

For test [4] the target is unchanged. Nature of the test: cell-based or functional assay. This is another data set of the same source.
For test [5] the target is unchanged. The experiment in a line: flow cytometry on A549-huCEA cells. The method, then: Briefly, cells were harvested, counted, checked for viability and resuspended at 2×10⁶ cells/ml in FACS buffer (100 μl PBS 0.1% BSA).
Test [6] addresses T3, human NABA-avi-his (human).
T3 construct: Chimeric antigen with a C-terminal avi 6his tag; also called recombinant tumor target antigen
T3 chain: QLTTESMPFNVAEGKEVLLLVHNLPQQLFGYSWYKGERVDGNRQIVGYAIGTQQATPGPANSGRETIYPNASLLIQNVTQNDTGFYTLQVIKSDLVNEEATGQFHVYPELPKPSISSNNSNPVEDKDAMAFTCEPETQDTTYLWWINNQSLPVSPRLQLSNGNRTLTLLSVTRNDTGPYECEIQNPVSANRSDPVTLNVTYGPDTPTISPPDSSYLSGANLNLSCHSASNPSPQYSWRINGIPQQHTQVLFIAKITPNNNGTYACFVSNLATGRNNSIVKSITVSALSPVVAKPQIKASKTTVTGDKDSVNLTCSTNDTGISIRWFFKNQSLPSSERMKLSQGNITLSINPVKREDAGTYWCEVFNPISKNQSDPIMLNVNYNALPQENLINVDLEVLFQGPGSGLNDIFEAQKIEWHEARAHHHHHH
Nature of the test: SPR Biacore T100, 25 C; t1/2 = ln 2/koff. How it is done: (§1) Surface plasmon resonance (SPR) experiments were performed on a Biacore T100 at 25° C. with HBS-EP as running buffer (0.01 M HEPES pH 7.4, 0.15 M NaCl, 3 mM EDTA, 0.005% Surfactant P20, Biacore, Freiburg/Germany).
(§2) Kinetic constants were derived using the Biacore T200 Evaluation Software (vAA, Biacore AB, Uppsala/Sweden), to fit rate equations for 1:1 Langmuir binding by numerical integration. The half-life (t_{1/2}) of the interaction was calculated using following formula: t_{1/2}=ln 2/koff.
On the technique in general: SPR reads the build-up and loss of mass on a sensor chip optically.

Test [7] concerns the target T4, human CD3ε stalk-Fc (knob)-Avi/CD3δ-stalk-Fc(hole) (human).
T4 construct: also called Human CD3ε/CD3δ; recombinant CD3ε/CD3δ
The experiment in a line: SPR Biacore T100, 25 C; t1/2 = ln 2/koff. How it is done:
as §1, §2

In test [8] the target is T3, human NABA-avi-his. Nature of the test: SPR Biacore T100, 25 C; TCB captured via anti-human Fab, antigen as analyte.
For test [9], the target named is T4, human CD3ε stalk-Fc …. The test is described as above.

One may read the EC50 as the concentration at which the effect is half-maximal. Higher therefore signals a less potent agent. In general, Kd refers to the equilibrium constant for the complex coming apart. A higher Kd goes with weaker binding. For orientation: koff means the rate constant with which the complex falls apart. For orientation: kon means the second-order rate constant of association. A lower kon goes with slow association.

T4 sequence (chain, as listed by the source mutant limits assumed, chain 1 of 2): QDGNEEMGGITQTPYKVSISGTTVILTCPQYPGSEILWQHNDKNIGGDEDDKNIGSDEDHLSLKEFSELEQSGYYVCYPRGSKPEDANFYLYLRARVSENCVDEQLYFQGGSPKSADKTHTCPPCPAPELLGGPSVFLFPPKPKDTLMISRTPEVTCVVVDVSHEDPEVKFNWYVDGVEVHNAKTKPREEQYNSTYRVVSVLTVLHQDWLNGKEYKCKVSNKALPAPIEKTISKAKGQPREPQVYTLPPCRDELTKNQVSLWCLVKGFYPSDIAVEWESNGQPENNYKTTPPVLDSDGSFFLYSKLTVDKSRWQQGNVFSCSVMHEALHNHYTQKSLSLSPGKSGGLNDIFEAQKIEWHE
T4 sequence (chain, as listed by the source mutant limits assumed, chain 2 of 2): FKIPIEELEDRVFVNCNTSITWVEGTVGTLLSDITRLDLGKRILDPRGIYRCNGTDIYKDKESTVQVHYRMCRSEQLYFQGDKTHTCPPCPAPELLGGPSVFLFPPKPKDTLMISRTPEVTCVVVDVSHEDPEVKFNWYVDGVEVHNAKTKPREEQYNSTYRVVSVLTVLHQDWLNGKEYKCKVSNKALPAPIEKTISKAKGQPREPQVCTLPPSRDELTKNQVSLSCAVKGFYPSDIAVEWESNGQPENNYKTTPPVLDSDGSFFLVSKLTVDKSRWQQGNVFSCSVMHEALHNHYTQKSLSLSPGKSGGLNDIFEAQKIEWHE
T2 sequence (P07766 23-207 limits assumed): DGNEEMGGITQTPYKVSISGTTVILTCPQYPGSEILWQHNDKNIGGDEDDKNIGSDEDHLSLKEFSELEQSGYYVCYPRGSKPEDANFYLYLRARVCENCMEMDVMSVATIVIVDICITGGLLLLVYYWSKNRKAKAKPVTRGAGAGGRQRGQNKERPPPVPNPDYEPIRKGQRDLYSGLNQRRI

B1: 2 + 1 IgG Crossfab, inverted; CL/CH1 exchange (CH1A1A/V9) (anti-CEA/anti-huCD3) (bispecific antibody)
chain 1: QVQLVQSGAEVKKPGASVKVSCKASGYTFTEFGMNWVRQAPGQGLEWMGWINTKTGEATYVEEFKGRVTFTTDTSTSTAYMELRSLRSDDTAVYYCARWDFAYYVEAMDYWGQGTTVTVSSASTKGPSVFPLAPSSKSTSGGTAALGCLVKDYFPEPVTVSWNSGALTSGVHTFPAVLQSSGLYSLSSVVTVPSSSLGTQTYICNVNHKPSNTKVDKKVEPKSCDKTHTCPPCPAPEAAGGPSVFLFPPKPKDTLMISRTPEVTCVVVDVSHEDPEVKFNWYVDGVEVHNAKTKPREEQYNSTYRVVSVLTVLHQDWLNGKEYKCKVSNKALGAPIEKTISKAKGQPREPQVCTLPPSRDELTKNQVSLSCAVKGFYPSDIAVEWESNGQPENNYKTTPPVLDSDGSFFLVSKLTVDKSRWQQGNVFSCSVMHEALHNHYTQKSLSLSPGK
chain 2: DIQMTQSPSSLSASVGDRVTITCKASAAVGTYVAWYQQKPGKAPKLLIYSASYRKRGVPSRFSGSGSGTDFTLTISSLQPEDFATYYCHQYYTYPLFTFGQGTKLEIKRTVAAPSVFIFPPSDEQLKSGTASVVCLLNNFYPREAKVQWKVDNALQSGNSQESVTEQDSKDSTYSLSSTLTLSKADYEKHKVYACEVTHQGLSSPVTKSFNRGEC
chain 3: DIQMTQSPSSLSASVGDRVTITCRASQDIRNYLNWYQQKPGKAPKLLIYYTSRLESGVPSRFSGSGSGTDYTLTISSLQPEDFATYYCQQGNTLPWTFGQGTKVEIKSSASTKGPSVFPLAPSSKSTSGGTAALGCLVKDYFPEPVTVSWNSGALTSGVHTFPAVLQSSGLYSLSSVVTVPSSSLGTQTYICNVNHKPSNTKVDKKVEPKSC
chain 4: not shown
notes: also called CL/CH1-exchange construct
In the case of B1, in test [1], the “EC50 of T cell-mediated killing (LDH release), LS-174T cells, human PBMCs E:T 10:1, 28 h” value turned out to be 0.673 nM and the “EC50 of T cell-mediated killing (LDH release), MKN-45 cells, human PBMCs E:T 10:1, 28 h” value is 0.115 nM. The molecule also gave an EC50 in test [2] of 3.9 nM. This molecule showed an EC50 in test [3] of 6.7 nM.

B2: CEA TCB (2+1 Crossfab-IgG P329G LALA inverted) (bispecific antibody)
chain 1: DIQMTQSPSSLSASVGDRVTITCKASAAVGTYVAWYQQKPGKAPKLLIYSASYRKRGVPSRFSGSGSGTDFTLTISSLQPEDFATYYCHQYYTYPLFTFGQGTKLEIKRTVAAPSVFIFPPSDEQLKSGTASVVCLLNNFYPREAKVQWKVDNALQSGNSQESVTEQDSKDSTYSLSSTLTLSKADYEKHKVYACEVTHQGLSSPVTKSFNRGEC
chain 2: QAVVTQEPSLTVSPGGTVTLTCGSSTGAVTTSNYANWVQEKPGQAFRGLIGGTNKRAPGTPARFSGSLLGGKAALTLSGAQPEDEAEYYCALWYSNLWVFGGGTKLTVLSSASTKGPSVFPLAPSSKSTSGGTAALGCLVKDYFPEPVTVSWNSGALTSGVHTFPAVLQSSGLYSLSSVVTVPSSSLGTQTYICNVNHKPSNTKVDKKVEPKSC
chain 3: not shown
chain 4: QVQLVQSGAEVKKPGASVKVSCKASGYTFTEFGMNWVRQAPGQGLEWMGWINTKTGEATYVEEFKGRVTFTTDTSTSTAYMELRSLRSDDTAVYYCARWDFAYYVEAMDYWGQGTTVTVSSASTKGPSVFPLAPSSKSTSGGTAALGCLVKDYFPEPVTVSWNSGALTSGVHTFPAVLQSSGLYSLSSVVTVPSSSLGTQTYICNVNHKPSNTKVDKKVEPKSCDKTHTCPPCPAPEAAGGPSVFLFPPKPKDTLMISRTPEVTCVVVDVSHEDPEVKFNWYVDGVEVHNAKTKPREEQYNSTYRVVSVLTVLHQDWLNGKEYKCKVSNKALGAPIEKTISKAKGQPREPQVCTLPPSRDELTKNQVSLSCAVKGFYPSDIAVEWESNGQPENNYKTTPPVLDSDGSFFLVSKLTVDKSRWQQGNVFSCSVMHEALHNHYTQKSLSLSPGK
notes: CH1A1A 98/99 2F1 as anti-CEA and humanized CH2527 as anti-CD3 antibody; also called CEA TCB antibody
Take B2: in [1], the “EC50 of T cell-mediated killing (LDH release), A549-hCEA cells, cynomolgus PBMCs E:T 10:1, 40 h” value was found to be 0.102 nM and the “EC50 of T cell-mediated killing (LDH release), A549-hCEA cells, human PBMCs E:T 10:1, 40 h” value worked out at 0.306 nM. In [4], the “EC50 [pM] 48 h of T-cell mediated killing (LDH release), ASPC1 cells, human PBMCs E:T 10:1” value amounted to 846 pM; the “EC50 [pM] 48 h of T-cell mediated killing (LDH release), BxPC-3 cells, human PBMCs E:T 10:1” value is 3780 pM; the “EC50 [pM] 48 h of T-cell mediated killing (LDH release), HPAFII cells, human PBMCs E:T 10:1” value was determined as 667 pM. The molecule also gave an EC50 in test [5] of 6.6 nM. In the test with human NABA-avi-his [6], this molecule showed a t1/2 of 5.3 min. The same molecule registered a t1/2 in test [7] of 5.7 min. In the test with human NABA-avi-his [8], the Kd was 62.4 nM, the off-rate (koff) amounted to 0.00218 s⁻¹ and the kon worked out at 34900 M⁻¹ s⁻¹. For the same molecule, in [9], the Kd turned out to be 75.3 nM, the koff turned out to be 0.00203 s⁻¹ and the kon is 26900 M⁻¹ s⁻¹.

B3: 2 + 1 IgG Crossfab, inverted; VL/VH exchange (CH1A1A/V9) (anti-CEA/anti-huCD3) (bispecific antibody)
chain 1: EVQLVESGGGLVQPGGSLRLSCAASGYSFTGYTMNWVRQAPGKGLEWVALINPYKGVSTYNQKFKDRFTISVDKSKNTAYLQMNSLRAEDTAVYYCARSGYYGDSDWYFDVWGQGTLVTVSSASVAAPSVFIFPPSDEQLKSGTASVVCLLNNFYPREAKVQWKVDNALQSGNSQESVTEQDSKDSTYSLSSTLTLSKADYEKHKVYACEVTHQGLSSPVTKSFNRGEC
chain 2: not shown
chain 3: QVQLVQSGAEVKKPGASVKVSCKASGYTFTEFGMNWVRQAPGQGLEWMGWINTKTGEATYVEEFKGRVTFTTDTSTSTAYMELRSLRSDDTAVYYCARWDFAYYVEAMDYWGQGTTVTVSSASTKGPSVFPLAPSSKSTSGGTAALGCLVKDYFPEPVTVSWNSGALTSGVHTFPAVLQSSGLYSLSSVVTVPSSSLGTQTYICNVNHKPSNTKVDKKVEPKSCDKTHTCPPCPAPEAAGGPSVFLFPPKPKDTLMISRTPEVTCVVVDVSHEDPEVKFNWYVDGVEVHNAKTKPREEQYNSTYRVVSVLTVLHQDWLNGKEYKCKVSNKALGAPIEKTISKAKGQPREPQVCTLPPSRDELTKNQVSLSCAVKGFYPSDIAVEWESNGQPENNYKTTPPVLDSDGSFFLVSKLTVDKSRWQQGNVFSCSVMHEALHNHYTQKSLSLSPGK
chain 4: DIQMTQSPSSLSASVGDRVTITCKASAAVGTYVAWYQQKPGKAPKLLIYSASYRKRGVPSRFSGSGSGTDFTLTISSLQPEDFATYYCHQYYTYPLFTFGQGTKLEIKRTVAAPSVFIFPPSDEQLKSGTASVVCLLNNFYPREAKVQWKVDNALQSGNSQESVTEQDSKDSTYSLSSTLTLSKADYEKHKVYACEVTHQGLSSPVTKSFNRGEC
notes: also called VL/VH-exchange construct
B3: in test [1], the “EC50 of T cell-mediated killing (LDH release), LS-174T cells, human PBMCs E:T 10:1, 28 h” value came out at 0.955 nM. The “EC50 of T cell-mediated killing (LDH release), MKN-45 cells, human PBMCs E:T 10:1, 28 h” value in test [1] is 0.243 nM. The EC50 was 4.6 nM in test [2] and 9.3 nM in test [3].
